Test results taken from patent US20090098112A1 (Genentech, published 2009).

biological target: T1, recombinant human integrin α5β1 (R&D) (human, UniProt P08648 42-995; P05556 21-728); assay: phage competition ELISA: Fab-phage incubated with serially diluted soluble human integrin α5β1, unbound phage captured on plate-coated integrin α5β1, anti-M13-HRP, A450
T1 construct: Bought recombinant heterodimer (R&D); It was used coated on plates and in solution in the phage ELISA, and as analyte or immobilized in BIAcore; also called alpha5beta1; a5b1
T1 sequence (P08648 42-995 limits assumed, chain 1 of 2): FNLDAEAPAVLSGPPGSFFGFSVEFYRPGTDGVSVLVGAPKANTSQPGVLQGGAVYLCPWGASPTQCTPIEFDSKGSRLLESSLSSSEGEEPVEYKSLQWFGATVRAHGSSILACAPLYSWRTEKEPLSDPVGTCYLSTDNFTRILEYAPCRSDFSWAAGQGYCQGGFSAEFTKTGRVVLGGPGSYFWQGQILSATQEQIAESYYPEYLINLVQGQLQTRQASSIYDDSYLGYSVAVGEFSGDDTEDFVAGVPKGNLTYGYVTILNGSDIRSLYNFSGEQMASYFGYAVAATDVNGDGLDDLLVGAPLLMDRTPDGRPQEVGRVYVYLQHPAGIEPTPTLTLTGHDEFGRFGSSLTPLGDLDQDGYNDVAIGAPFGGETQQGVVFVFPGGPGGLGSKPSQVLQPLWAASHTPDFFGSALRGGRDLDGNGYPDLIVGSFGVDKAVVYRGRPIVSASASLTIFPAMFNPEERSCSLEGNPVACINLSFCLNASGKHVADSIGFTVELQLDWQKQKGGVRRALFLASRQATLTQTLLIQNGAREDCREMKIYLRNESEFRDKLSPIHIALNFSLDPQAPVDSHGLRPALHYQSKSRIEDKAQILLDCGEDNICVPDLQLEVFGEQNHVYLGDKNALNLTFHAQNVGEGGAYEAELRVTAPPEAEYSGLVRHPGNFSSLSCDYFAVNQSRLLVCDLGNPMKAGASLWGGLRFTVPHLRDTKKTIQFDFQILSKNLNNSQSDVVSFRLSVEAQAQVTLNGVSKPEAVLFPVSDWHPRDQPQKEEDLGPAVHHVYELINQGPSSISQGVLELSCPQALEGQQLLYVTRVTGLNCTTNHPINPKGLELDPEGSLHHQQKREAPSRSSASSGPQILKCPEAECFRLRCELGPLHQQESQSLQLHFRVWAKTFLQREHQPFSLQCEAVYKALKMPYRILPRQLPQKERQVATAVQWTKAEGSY
T1 sequence (P05556 21-728 limits assumed, chain 2 of 2): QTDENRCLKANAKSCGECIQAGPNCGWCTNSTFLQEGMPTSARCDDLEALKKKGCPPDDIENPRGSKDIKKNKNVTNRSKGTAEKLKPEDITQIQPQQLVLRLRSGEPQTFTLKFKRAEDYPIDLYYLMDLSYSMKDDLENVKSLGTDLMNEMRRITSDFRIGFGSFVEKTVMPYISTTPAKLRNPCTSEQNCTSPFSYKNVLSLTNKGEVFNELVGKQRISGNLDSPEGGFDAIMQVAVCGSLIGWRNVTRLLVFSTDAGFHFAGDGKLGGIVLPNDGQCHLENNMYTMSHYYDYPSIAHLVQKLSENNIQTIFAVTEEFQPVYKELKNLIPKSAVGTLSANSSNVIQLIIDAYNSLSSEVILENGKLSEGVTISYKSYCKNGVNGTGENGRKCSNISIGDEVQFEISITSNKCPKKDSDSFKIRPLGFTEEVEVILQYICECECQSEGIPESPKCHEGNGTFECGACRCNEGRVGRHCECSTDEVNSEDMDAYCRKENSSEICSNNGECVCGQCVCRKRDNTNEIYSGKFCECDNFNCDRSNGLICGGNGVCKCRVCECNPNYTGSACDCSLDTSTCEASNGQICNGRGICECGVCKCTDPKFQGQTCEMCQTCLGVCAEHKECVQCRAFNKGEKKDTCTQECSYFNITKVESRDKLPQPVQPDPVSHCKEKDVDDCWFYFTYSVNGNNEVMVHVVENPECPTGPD
Procedure: Mutation at each position was generated by Kunkel mutagenesis using a separate oligonucleotide. Phage competition ELISA was utilized for evaluating all of the variants. […] Binding affinities (IC50) against human integrin α5β1 was determined.
(§1) MAXISORP™ microtiter plates were coated with recombinant human integrin α5β1 (R&D) at 5 μg/ml in PBS overnight and then blocked with PBST buffer (0.5% BSA and 0.05% Tween 20 in PBS) for an hour at room temperature. Phage from culture supernatants were incubated with serially diluted human integrin α5β1 in PBST buffer in a tissue-culture microtiter plate for an hour, after which 80 μl of the mixture was transferred to the target-coated wells for 15 minutes to capture unbound phage. The plate was washed with PBT buffer (0.05% Tween 20 in PBS), and HRP-conjugated anti-M13 (Amersham Pharmacia Biotech) was added (1:5000 in PBST buffer) for 40 minutes. The plate was washed with PBT buffer and developed by adding tetramethylbenzidine substrate (Kirkegaard and Perry Laboratories, Gaithersburg, Md.). The absorbance at 450 nm was plotted as a function of target concentration in solution to determine phage IC₅₀.

Binder | binding result
h7H5.v2 framework modification clone, light chain T46L, displayed on phage as a monovalent Fab (Fab, name in Kabat numbering, V domains shown, Single mutation in h7H5.v2 made by Kunkel mutagenesis; monovalent Fab on phage; also called light chain position 46 (T46L)) VH: EVQLVESGGGLVQPGGSLRLSCAASGYTFTDYYLYWVRQAPGKGLEWIGGISPSSGGTTFADAFEGKATLSVDKSKNTAYLQMNSLRAEDTAVYYCTRDAYGDWYFDVWGQGT VL: DIQMTQSPSSLSASVGDRVTITCKASQSVGSDVAWYQQKPGKAPKLLIYSTSYRYSGVPSRFSGSGSGTDFTLTISSLQPEDFATYYCQQYSSYPFTFGQGTKVEIKR | binds
h7H5.v2 framework modification clone, heavy chain A67F, displayed on phage as a monovalent Fab (Fab, name in Kabat numbering, V domains shown, Single mutation in h7H5.v2 made by Kunkel mutagenesis; monovalent Fab on phage; The position is Kabat and may be shifted from the count on the entry; also called heavy chain position 67 (A67F)) VH: EVQLVESGGGLVQPGGSLRLSCAASGYTFTDYYLYWVRQAPGKGLEWIGGISPSSGGTTFADAFEGKFTLSVDKSKNTAYLQMNSLRAEDTAVYYCTRDAYGDWYFDVWGQGT VL: DIQMTQSPSSLSASVGDRVTITCKASQSVGSDVAWYQQKPGKAPKTLIYSTSYRYSGVPSRFSGSGSGTDFTLTISSLQPEDFATYYCQQYSSYPFTFGQGTKVEIKR | binds
h7H5.v2 framework modification clone, heavy chain T30S, displayed on phage as a monovalent Fab (Fab, name in Kabat numbering, V domains shown, Single mutation in h7H5.v2 made by Kunkel mutagenesis; monovalent Fab on phage; also called heavy chain position 30 (T30S)) VH: EVQLVESGGGLVQPGGSLRLSCAASGYTFSDYYLYWVRQAPGKGLEWIGGISPSSGGTTFADAFEGKATLSVDKSKNTAYLQMNSLRAEDTAVYYCTRDAYGDWYFDVWGQGT VL: DIQMTQSPSSLSASVGDRVTITCKASQSVGSDVAWYQQKPGKAPKTLIYSTSYRYSGVPSRFSGSGSGTDFTLTISSLQPEDFATYYCQQYSSYPFTFGQGTKVEIKR | binds

biological target: T1, recombinant human integrin α5β1 (R&D); assay: phage competition ELISA IC50 of the Fab-phage against human integrin α5β1, relative to parental h7H5.v1; down arrow = loss, up arrow = improvement of binding affinity
Procedure: Substitutions with other resides at various positions was achieved by Kunkel mutagenesis using a separate oligonucleotide for each position. […] The IC50 values for binding affinity were determined by phage competition ELISA in FIG. 6. Two variants, h7H5.v2 and h7H5.v3 as indicated were selected to include glycine substitution at position 65 of CDR-H2, cloned into hIgG1 vector, and evaluated binding affinities using BIAcore instrument.
as §1

Binder | Relative Fold to h7H5.v1 [fold]
CDR-H2:N60A (Fab, part only; not given: VH end, constant domains, phage fusion, V domains shown, not shown: another chain or arm of the molecule; a dimerising Fc or GST; large carriers) VL: DIQMTQSPSSLSASVGDRVTITCKASQNVGSDVAWYQQKPGKAPKTLIYSTSYRYSGVPSRFSGSGSGTDFTLTISSLQPEDFATYYCQQYNSYPFTFGQGTKVEIK VH: EVQLVESGGGLVQPGGSLRLSCAASGYTFTDYYLYWVRQAPGKGLEWIGGISPSNGGTTFADNFENKATLSVDKSKNTAYLQMNSLRAEDTAVYYCTRDAYGDWYFDVWGQGT | 1.6
CDR-H2:N54S (Fab, part only; not given: VH end, constant domains, phage fusion, V domains shown, not shown: another chain or arm of the molecule; a dimerising Fc or GST; large carriers) VL: DIQMTQSPSSLSASVGDRVTITCKASQNVGSDVAWYQQKPGKAPKTLIYSTSYRYSGVPSRFSGSGSGTDFTLTISSLQPEDFATYYCQQYNSYPFTFGQGTKVEIK VH: EVQLVESGGGLVQPGGSLRLSCAASGYTFTDYYLYWVRQAPGKGLEWIGGISPSSGGTTFNDNFENKATLSVDKSKNTAYLQMNSLRAEDTAVYYCTRDAYGDWYFDVWGQGT | 1
CDR-H2:N60S (Fab, part only; not given: VH end, constant domains, phage fusion, V domains shown, not shown: another chain or arm of the molecule; a dimerising Fc or GST; large carriers) VL: DIQMTQSPSSLSASVGDRVTITCKASQNVGSDVAWYQQKPGKAPKTLIYSTSYRYSGVPSRFSGSGSGTDFTLTISSLQPEDFATYYCQQYNSYPFTFGQGTKVEIK VH: EVQLVESGGGLVQPGGSLRLSCAASGYTFTDYYLYWVRQAPGKGLEWIGGISPSNGGTTFSDNFENKATLSVDKSKNTAYLQMNSLRAEDTAVYYCTRDAYGDWYFDVWGQGT | 2.5
CDR-H2:N62A (Fab, part only; not given: VH end, constant domains, phage fusion, V domains shown, not shown: another chain or arm of the molecule; a dimerising Fc or GST; large carriers) VL: DIQMTQSPSSLSASVGDRVTITCKASQNVGSDVAWYQQKPGKAPKTLIYSTSYRYSGVPSRFSGSGSGTDFTLTISSLQPEDFATYYCQQYNSYPFTFGQGTKVEIK VH: EVQLVESGGGLVQPGGSLRLSCAASGYTFTDYYLYWVRQAPGKGLEWIGGISPSNGGTTFNDAFENKATLSVDKSKNTAYLQMNSLRAEDTAVYYCTRDAYGDWYFDVWGQGT | 1
CDR-L3:N92S (Fab, V domains shown, Fab-phage; also called h7H5.v1 single point mutant, light chain N92S, Fab-phage; copies: 1 + 1) VH: EVQLVESGGGLVQPGGSLRLSCAASGYTFTDYYLYWVRQAPGKGLEWIGGISPSNGGTTFNDNFENKATLSVDKSKNTAYLQMNSLRAEDTAVYYCTRDAYGDWYFDVWGQGT VL: DIQMTQSPSSLSASVGDRVTITCKASQNVGSDVAWYQQKPGKAPKTLIYSTSYRYSGVPSRFSGSGSGTDFTLTISSLQPEDFATYYCQQYSSYPFTFGQGTKVEIK | 1
CDR-L1:N28S (Fab, V domains shown, Fab-phage; also called h7H5.v1 single point mutant, light chain N28S, Fab-phage; copies: 1 + 1) VH: EVQLVESGGGLVQPGGSLRLSCAASGYTFTDYYLYWVRQAPGKGLEWIGGISPSNGGTTFNDNFENKATLSVDKSKNTAYLQMNSLRAEDTAVYYCTRDAYGDWYFDVWGQGT VL: DIQMTQSPSSLSASVGDRVTITCKASQSVGSDVAWYQQKPGKAPKTLIYSTSYRYSGVPSRFSGSGSGTDFTLTISSLQPEDFATYYCQQYNSYPFTFGQGTKVEIK | 1.3
CDR-L3:N92A (Fab, V domains shown, Fab-phage; also called h7H5.v1 single point mutant, light chain N92A, Fab-phage) VH: EVQLVESGGGLVQPGGSLRLSCAASGYTFTDYYLYWVRQAPGKGLEWIGGISPSNGGTTFNDNFENKATLSVDKSKNTAYLQMNSLRAEDTAVYYCTRDAYGDWYFDVWGQGT VL: DIQMTQSPSSLSASVGDRVTITCKASQNVGSDVAWYQQKPGKAPKTLIYSTSYRYSGVPSRFSGSGSGTDFTLTISSLQPEDFATYYCQQYASYPFTFGQGTKVEIK | 1
